Patent US20230057263A1 (CYTOMX THERAPEUTICS, published 2023)
No end group written: not given here. *: point of attachment. Biotin = O=C1N[C@H]2[C@H](CS[C@H]2CCCCC(=O)*)N1; code X = not defined here

What was measured:
B X QTPYKVSISGTTVIL = target: T1, B X QTPYKVSISGTTVIL (reading uncertain); experiment: Luminex bead assay, 1 ug/ml antibody [Cont.]
T1 construct: row 13 of the chart; also called biotinylated 15-mer, residues 12-26
T1 peptide: {Biotin-code X}-QTPYKVSISGTTVIL
Protocol: (§1) A set of experiments was performed to map the epitope recognized by the anti-CD3ε antibodies. In these experiments, the anti-CD3ε antibodies were assessed for binding to a collection of overlapping 15-mer peptides spanning amino acids 1-27 of human CD3ε protein using a Luminex bead assay. Control CD3 proteins, control peptides, or the test peptides were immobilized on Luminex beads and incubated with a panel of anti-CD3 antibodies. Binding of the anti-CD3 antibodies to the peptide/protein immobilized on the Luminex bead was detected by R-Phycoerythrin conjugated secondary antibody.
(§2) Recombinant CD3 proteins (human CD3d/e heterodimer and cynomolgus CD3-epsilon (Sinobiological)) and control peptides (#p1, #p2, and #p3) were conjugated to Luminex beads using standard EDC/Sulfo-NHS chemistry. The 15-mer test peptides were synthesized as biotinylated peptides at JPT Peptide Technologies Gmbh and were immobilized on streptavidin-conjugated Luminex beads that were made using standard EDC/Sulfo-NHS chemistry and streptavidin (Invitrogen Cat. No. 434301 lot 1626028A). The Luminex beads with immobilized peptides or reagents were incubated with 50 ul of a panel of anti-CD3 antibodies (1 ug/ml) for one hour at room temperature, washed two times, incubated with mixture of anti-human and anti-mouse IgG-RPE (Jackson Immunoresearch 109-116-097 and Southern Biotech 1030-09, respectively) for 30 mins at RT, washed three times, and analyzed in the Luminex instrument to assess the level of bound anti-CD3 antibodies.

B X TQTPYKVSISGTTVI = target: T2, B X TQTPYKVSISGTTVI (reading uncertain); experiment: Luminex bead assay, 1 ug/ml antibody [Cont.]
T2 construct: row 12 of the chart; also called biotinylated 15-mer, residues 11-25
T2 peptide: {Biotin-code X}-TQTPYKVSISGTTVI
Protocol: as §1, §2

vCD3e #p1 peptide = target: T3, vCD3e #p1 peptide; experiment: Luminex bead assay, 1 ug/ml antibody [Cont.]
T3 construct: also called control peptide #p1
Protocol: as §1, §2

B X GITQTPYKVSISGTT = target: T4, B X GITQTPYKVSISGTT (reading uncertain); experiment: Luminex bead assay, 1 ug/ml antibody [Cont.]
T4 construct: row 10 of the chart; also called biotinylated 15-mer, residues 9-23
T4 peptide: {Biotin-code X}-GITQTPYKVSISGTT
Protocol: as §1, §2

B X QDGNEEMAGITQTP = target: T5, B X QDGNEEMAGITQTP (reading uncertain); experiment: Luminex bead assay, 1 ug/ml antibody [Cont.]
T5 construct: row 22 of the chart; 14 residues; also called alanine-scan peptide G8A
T5 peptide: {Biotin-code X}-QDGNEEMAGITQTP
Protocol: as §1, §2

B X EMGGITQTPYKVSIS = target: T6, B X EMGGITQTPYKVSIS (reading uncertain); experiment: Luminex bead assay, 1 ug/ml antibody [Cont.]
T6 construct: row 7 of the chart; also called biotinylated 15-mer, residues 6-20
T6 peptide: {Biotin-code X}-EMGGITQTPYKVSIS
Protocol: as §1, §2

B X GNEEMGGITQTPYKV = target: T7, B X GNEEMGGITQTPYKV (reading uncertain); experiment: Luminex bead assay, 1 ug/ml antibody [Cont.]
T7 construct: row 4 of the chart; also called biotinylated 15-mer, residues 3-17
T7 peptide: {Biotin-code X}-GNEEMGGITQTPYKV
Protocol: as §1, §2

B X GGITQTPYKVSISGT = target: T8, B X GGITQTPYKVSISGT (reading uncertain); experiment: Luminex bead assay, 1 ug/ml antibody [Cont.]
T8 construct: row 9 of the chart; also called biotinylated 15-mer, residues 8-22
T8 peptide: {Biotin-code X}-GGITQTPYKVSISGT
Protocol: as §1, §2

B X TPYKVSISGTTVILT = target: T9, B X TPYKVSISGTTVILT (reading uncertain); experiment: Luminex bead assay, 1 ug/ml antibody [Cont.]
T9 construct: row 14 of the chart; also called biotinylated 15-mer, residues 13-27
T9 peptide: {Biotin-code X}-TPYKVSISGTTVILT
Protocol: as §1, §2

B X EEMGGITQTPYKVSI = target: T10, B X EEMGGITQTPYKVSI (reading uncertain); experiment: Luminex bead assay, 1 ug/ml antibody [Cont.]
T10 construct: row 6 of the chart; also called biotinylated 15-mer, residues 5-19
T10 peptide: {Biotin-code X}-EEMGGITQTPYKVSI
Protocol: as §1, §2

B X QDANEEMGGITQTP = target: T11, B X QDANEEMGGITQTP (reading uncertain); experiment: Luminex bead assay, 1 ug/ml antibody [Cont.]
T11 construct: row 17 of the chart; 14 residues; also called alanine-scan peptide G3A
T11 peptide: {Biotin-code X}-QDANEEMGGITQTP
Protocol: as §1, §2

B X NEEMGGITQTPYKVS = target: T12, B X NEEMGGITQTPYKVS (reading uncertain); experiment: Luminex bead assay, 1 ug/ml antibody [Cont.]
T12 construct: row 5 of the chart; also called biotinylated 15-mer, residues 4-18
T12 peptide: {Biotin-code X}-NEEMGGITQTPYKVS
Protocol: as §1, §2

B X QDGNEEMGGATQTP = target: T13, B X QDGNEEMGGATQTP (reading uncertain); experiment: Luminex bead assay, 1 ug/ml antibody [Cont.]
T13 construct: row 24 of the chart; 14 residues; also called alanine-scan peptide I10A
T13 peptide: {Biotin-code X}-QDGNEEMGGATQTP
Protocol: as §1, §2

B X QDGNEEAGGITQTP = target: T14, B X QDGNEEAGGITQTP (reading uncertain); experiment: Luminex bead assay, 1 ug/ml antibody [Cont.]
T14 construct: row 21 of the chart; 14 residues; also called alanine-scan peptide M7A
T14 peptide: {Biotin-code X}-QDGNEEAGGITQTP
Protocol: as §1, §2

BSA alone = target: T15, BSA alone (bovine, UniProt P02769); experiment: Luminex bead assay, 1 ug/ml antibody [Cont.]
T15 construct: carrier protein without peptide
T15 sequence (P02769 25-607 limits assumed): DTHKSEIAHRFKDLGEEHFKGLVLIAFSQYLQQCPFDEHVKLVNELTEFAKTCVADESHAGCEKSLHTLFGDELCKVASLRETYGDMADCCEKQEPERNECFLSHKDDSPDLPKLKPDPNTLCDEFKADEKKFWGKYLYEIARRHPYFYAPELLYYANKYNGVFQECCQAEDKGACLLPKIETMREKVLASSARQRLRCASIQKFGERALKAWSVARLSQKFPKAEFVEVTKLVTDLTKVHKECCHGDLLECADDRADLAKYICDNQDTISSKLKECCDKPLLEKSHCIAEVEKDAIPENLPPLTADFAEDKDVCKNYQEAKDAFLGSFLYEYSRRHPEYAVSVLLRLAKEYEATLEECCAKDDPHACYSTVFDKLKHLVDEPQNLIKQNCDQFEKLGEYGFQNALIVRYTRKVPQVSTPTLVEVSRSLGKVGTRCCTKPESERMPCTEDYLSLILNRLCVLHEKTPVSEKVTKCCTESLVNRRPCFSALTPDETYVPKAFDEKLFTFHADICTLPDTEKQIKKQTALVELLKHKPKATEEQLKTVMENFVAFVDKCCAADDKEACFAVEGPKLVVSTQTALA
Protocol: as §1, §2

B X QDGAEEMGGITQTP = target: T16, B X QDGAEEMGGITQTP (reading uncertain); experiment: Luminex bead assay, 1 ug/ml antibody [Cont.]
T16 construct: row 18 of the chart; 14 residues; also called alanine-scan peptide N4A
T16 peptide: {Biotin-code X}-QDGAEEMGGITQTP
Protocol: as §1, §2

human CD3 epsilon (CD3ε) = target: T17, human CD3 epsilon (CD3ε) (human, UniProt P07766 23-207); experiment: flow cytometry on human T cells
T17 construct: Present on donor human T cells as part of the TCR-CD3 complex; also called CD3ε on human T cells
Protocol: In these experiments, human or cynomolgus T cells were incubated with an anti-CD3ε antibody and binding was assessed by flow cytometry.
Briefly, donor T cells from either human or cynomolgus donors were resuspended in FACS buffer containing 0.1% sodium azide and aliquoted in 100 μL volumes. For incubation, 100 μL aliquots of donor T cells were mixed with 50 μL of antibodies diluted in FACS buffer containing 0.1% sodium azide. The cells were then washed twice with FACS buffer containing sodium azide. The bound antibody was detected by incubating cells for 60 minutes with a 1:200 dilution of SAV-RPE (Invitrogen Cat No. SA10044, Lot. 1542820A) or 1:100 dilution of goat-anti-Mouse Fcγ-RPE (Jackson Cat. No. 115-116-071, Lot. 108668, diluted in 0.2% goat serum). The cells were washed, fixed, and analyzed with an Accuri Flow Cytometer.
Treatment with OKT3, SP34-2, and diL2K antibodies were used as positive controls for T cell binding. […] Treatment with OKT3, SP34-2, and diL2K antibodies were used as controls for T cell binding with only SP34-2 binding to cynomolgus T cells, as expected.

B1: 6d59 (antibody, V domains shown)
VH: QVHLVESGGGVVQPGRSLRLSCAASGFKFRSYGMHWVRQAPGKGLEWVAIIWYDGSKRYYADSVKGRFTISRDNSKNTLYLQMSSLRAEDTAVYYCARDLITGTTDYWGQGTLVTVSS
VL: DVVMTQSPLSLPVTLGQPASISCRSSRSLVYSDGNTHLIWFQQRPGQSPRRLIYRVSNRVSGVPDRFSGSGSGTDFTLKISRVEAEDVGVYYCLQGAHWPYTFGQGTKLEIKR
notes: also called 6d59.1; VCD3-6d59.1
With B1 the Luminex signal (B X QTPYKVSISGTTVIL) was 31.5, the Luminex signal (B X TQTPYKVSISGTTVI) was 47.5 and the Luminex signal (vCD3e #p1 peptide) was 20300. It also gave a Luminex signal (B X GITQTPYKVSISGTT) of 43, a Luminex signal (B X QDGNEEMAGITQTP) of 2510 and a Luminex signal (B X EMGGITQTPYKVSIS) of 44.5. For the same binder, the Luminex signal (B X GNEEMGGITQTPYKV) was 44.5, the Luminex signal (B X GGITQTPYKVSISGT) was 29.5 and the Luminex signal (B X TPYKVSISGTTVILT) was 31. The Luminex signal (B X EEMGGITQTPYKVSI) was 43, the Luminex signal (B X QDANEEMGGITQTP) was 32.5 and the Luminex signal (B X NEEMGGITQTPYKVS) was 40.5. It also gave a Luminex signal (B X QDGNEEMGGATQTP) of 2630, a Luminex signal (B X QDGNEEAGGITQTP) of 2580 and a Luminex signal (BSA alone) of 420. For the same binder, the Luminex signal (B X QDGAEEMGGITQTP) was 48 and the “EC50 (read off the curve)” value (human CD3 epsilon (CD3ε)) was roughly 0.06 nM.
